Among the data in the supplement of paper PMC12042874 are amyloid nucleation score values, retold here.

± gives the uncertainty stated by the source.

A short description of this data set: amyloid nucleation score (Sup35N fusion, yeast selection) (log enrichment); library NNK3; higher = more nucleation; inactive = no reads after selection. In a few lines:
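The nucleation score is the DiMSum log enrichment of output over input reads, centred on the mode score of non-aggregating sequences. Only sequences with 100 or more input reads were scored, using Illumina sequencing of input and output plasmid inserts. Psi-negative yeast expressing Sup35N fused to peptides of 20 random codons were induced 24 hours with 100 μM copper sulfate and grown 7 days at 30°C on medium lacking adenine and uracil.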

With KNERVWVSRWETFKLHCSRV, the amyloid nucleation score result was “inactive”.
On to IWWILIDP, for which the amyloid nucleation score entry is “inactive”.
For the substance YCSYQNR, the amyloid nucleation score entry is “inactive”.
For the substance IFTHVVEEFS, the amyloid nucleation score result is “inactive”.
The substance VAFYVTHGAIVYFSMGCAGI came in with an amyloid nucleation score of 1.63 ± 0.11.
As to DRVGRRLIGLRLAQLLGERF, the amyloid nucleation score result was “inactive”.
In the case of WSTPDFRGLHYSTVFITIFA, the amyloid nucleation score turned out to be 0.194 ± 0.51.
Consider IHSDLTVSCNIYWKSY, for which the amyloid nucleation score was 0.922 ± 0.14.
In the case of NKGLNL, the amyloid nucleation score result is “inactive”.
As to LNIIVDGLAMDVYDEALGSN, the amyloid nucleation score result was “inactive”.
As for HTIRL, the amyloid nucleation score entry is “inactive”.
For SYRLSYLYPSTHHYLLNCLL, the amyloid nucleation score entry is “inactive”.
As for VHMNRSGSAALEFGMLWEYI, the entry is “inactive”.
On to NQRSAILVGPSRNLQY, for which the amyloid nucleation score result is “inactive”.
The entry for RVFNIEYMLECAFFRTIRD is “inactive”.
Regarding AFKDNNDCLEHCCRRVTDLV, the amyloid nucleation score result is “inactive”.
As for DEISSFER, the entry is “inactive”; as for RLLLGTIYSFLKLHGDFNGR, “inactive”.
As to AHVALR, the amyloid nucleation score entry is “inactive”.
With IYIFGFQTVCNSLIGGLSIA, the amyloid nucleation score entry is “inactive”.
Turning to HFITCELGFGDKGSIFFIAG, the amyloid nucleation score entry was “inactive”.
With RSIDGKSYNLAYLLGGLRNS, the amyloid nucleation score is 2.56 ± 0.065.
Consider SNWECLGGHENGINCRDI, for which the amyloid nucleation score result was “inactive”.
As to YACRVGVWKRVRVWNSGVSL, the amyloid nucleation score result was “inactive”.
Consider DGRSIEFIDGCDVYSICSRE, for which the amyloid nucleation score result was “inactive”.
The entry for FFFRLDCRLYS is “inactive”; for QLRRCLEMARYSKARFRNCM it is “inactive”.
In the case of YWNIFGVVSN, the amyloid nucleation score entry was “inactive”.
With LTMVWDNIAMYMHWHMTTPI, the amyloid nucleation score result is “inactive”.
On to DVGMGRHGKAMK, for which the amyloid nucleation score entry was “inactive”.
GYNFNEENINMLHQREFSLS: the amyloid nucleation score entry is “inactive”.
In the case of EPITASYMRILNCACVAYCG, the amyloid nucleation score entry is “inactive”.
As for SDKRPWGFRNRDIYVIVGHR, the entry is “inactive”.
In the case of YSKRAHVFYES, the amyloid nucleation score is -0.06 ± 0.36.
As for LFSSRYDLIDVNVRGVDYSQ, the amyloid nucleation score entry was “inactive”.
The entry for MNFMLTLFLWGM is “inactive”; for LVTFCYLDGSILNGEALRG it is “inactive”; for GANSGFRGIDGLLPALDKQE it is “inactive”.
The entry for WKALFSSTSCYTGVG is “inactive”.
With WLLDSRDGMRRKRAPRRVFA, the amyloid nucleation score entry is “inactive”.
Substance GSYLQGMRCVADWDNGEQLR showed an amyloid nucleation score of 1.97 ± 0.091.
As for RNFMSFRWPVLKLQRRVP, the entry is “inactive”.
Turning to LVADSDRMNVTLRFTVSYCS, the amyloid nucleation score result is “inactive”.
For SWLIR, the amyloid nucleation score entry is “inactive”.
Substance IQYRGYGYMNSIWYGVERFF displayed an amyloid nucleation score of 0.626 ± 0.28.
As to NYYLGETLA, the amyloid nucleation score result is “inactive”.
Take CSMLASMWTTIRYLLLLEVA: the amyloid nucleation score worked out at 1.49 ± 0.09.
With LFLVYGGYIFAQRKFAFNSS, the amyloid nucleation score result was “inactive”.
As to YPFLSIGLYQCRS, the amyloid nucleation score result is “inactive”.
In turn, FCRPNSWI came in with an amyloid nucleation score of 0.53 ± 0.38.
Take SLIGNSDSPWFLRQTCTYTK: the amyloid nucleation score entry was “inactive”.
With RGMCV, the amyloid nucleation score entry is “inactive”.
For the substance SPEPSVNRKHLVPLLPAAFE, the amyloid nucleation score result is “inactive”.
Regarding MPSEILVSGIAGYAWAVSR, the amyloid nucleation score was -0.504 ± 1.9.
As to VYRCVFWDVCAWCFKFR, the amyloid nucleation score is 0.778 ± 0.14.
As for RMRYFDVYIWSDMRNEPGGL, the entry is “inactive”; as for NVGWIWPYM, “inactive”; as for NVRFDGKVWLG, 0.744 ± 0.31.
For RTSEPKTAHIMNEAIRRC, the amyloid nucleation score result is “inactive”.
In turn, RCYFKYP gave an amyloid nucleation score of 1.32 ± 0.13.
On to RTSLYICINKRTLSHRLFPC, for which the amyloid nucleation score entry was “inactive”.
In the case of LFPYMDCNSGTELFYGFIVQ, the amyloid nucleation score result was “inactive”.
Turning to KNGIITLSSIT, the amyloid nucleation score entry is “inactive”.
Turning to HSLVVNSSSERRYG, the amyloid nucleation score entry is “inactive”.
As for IGHSTTYHKRQECSLVQWSS, the amyloid nucleation score entry is “inactive”.
The figure for ILVVGALDLLCGVLTEYSCQ is 1.1 ± 0.1; for RRGIWDSVKMEKFL it is “inactive”; for AVMWYIPRDG it is “inactive”.
The entry for RKPFENIDS is “inactive”; for DSFNLSDSGWSTLYIRAWDG it is “inactive”.
The figure for VKLALRTAFVGSQVYRILRA is -0.076 ± 0.88; for SFTAYVASLA it is -0.151 ± 1.1.
In the case of IGRVTSMGRMLHGNW, the amyloid nucleation score entry was “inactive”.
Substance VIILTYVSMLTTAHINGWSG had an amyloid nucleation score of 0.309 ± 0.29.
The entry for DCLMDGDFRILGSFIHRFSE is “inactive”.
For the substance ESDAFKLCAYDLNIMNISRF, the amyloid nucleation score result was “inactive”.
Turning to VHTMEEVA, the amyloid nucleation score result was “inactive”.
LSNLRGYNH: the amyloid nucleation score result is “inactive”.
For YLSASYIVYFIITEYYSYIF, the amyloid nucleation score entry is “inactive”.
For the substance NTRLSMAF, the amyloid nucleation score entry was “inactive”.
Take TSYYIYTVSFDGCCSNLRTV: the amyloid nucleation score was determined as 1.56 ± 0.13.
Regarding YHCAFVSINSECMVDGLTLC, the amyloid nucleation score came to 0.883 ± 0.15.
Turning to VFSMWFSGLTTSIYRSLED, the amyloid nucleation score entry was “inactive”.
On to IRSMGRPTRKLCEPGFSALE, for which the amyloid nucleation score result is “inactive”.
As for LGMSYVYTTGLQKQAASQ, the entry is “inactive”; as for DCLFRNLMS, “inactive”; as for TVFMYRRVFSIRWG, “inactive”.
With EKSCCCSVKI, the amyloid nucleation score result is “inactive”.
YLNISGWSYFNCTRSWLLNR: the amyloid nucleation score result is “inactive”.
In turn, VNIRLMVKIRFDSVLRILPY gave an amyloid nucleation score of 0.509 ± 0.31.
As for PTNTNCLNVLG, the amyloid nucleation score entry was “inactive”.
TYFYAFALTVPYSWHSEDRM yielded an amyloid nucleation score of 2.04 ± 0.054.
Consider IAHISLQNIVDVMGPNRSMY, for which the amyloid nucleation score amounted to 1.44 ± 0.14.
As for DSNWRNMRGLHFY, the amyloid nucleation score entry was “inactive”.
Take TIFVVCIRIFVWFLCYGSDP: the amyloid nucleation score was 0.207 ± 0.23.
Take NHMLCCTCDFHYCVRGWKSF: the amyloid nucleation score was 0.64 ± 0.33.
For the substance CSIVVNLMYLLVDACMGPKG, the amyloid nucleation score result was “inactive”.
With DFWRTIEGKMSLALI, the amyloid nucleation score entry is “inactive”.
